# Target: Protein L (UniProt Q51918)
# Test: BLI
substance,measurement,value
Trastuzumab wild-type (recombinant Trastuzumab model) (antibody),koff,1.2e-05 s⁻¹

# From article PMC5476676
